In patent publication US20250101096A1 (SERA PROGNOSTICS, published 2025):
Blank lines part the entries; values can stand above or below the binder they belong to.

Experiments:
[1] = biological target: T1, C-terminal IBP4 fragment (amino acids 157-258) (human, UniProt P22692 157-258); test: SPR (Biacore T100), mAb amine-coupled to C1 chip, CT-IBP4 injected, 1:1 fit, second surface assay 3
T1 construct: also called CT-IBP4; C-term IBP4
T1 sequence: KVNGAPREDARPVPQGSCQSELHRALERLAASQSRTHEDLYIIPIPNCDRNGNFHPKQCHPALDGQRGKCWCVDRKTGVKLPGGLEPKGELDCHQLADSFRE
Protocol: (§1) For this reason, anti-IBP4 antibodies were directly amine coupled using standard NHS/EDC coupling to a C1 sensor chip. Variant 5B3.G9 was coupled on two surfaces at 350 RU and the other at 150 RU. […] Antibodies were measured in a multi-cycle kinetic mode. Binding studies were performed in PBS buffer+0.05% P20+3 mM EDTA at 25 degrees C. CT-IBP4 was tested in a 3-fold concentration series up to 333 nM and injected at 100 uL/min for 3 minutes followed by a 10 minute dissociation phase. Surfaces were regenerated with 1/100 H3PO4 after each cycle. The antigen binding responses were processed by subtracting the signal from a reference surface with no antibody captured along with a buffer injection. The processed response data were globally fit to a simple 1:1 interaction using SCRUBBER (Biologic Software Pty Ltd). The antigen concentration series was tested three times over each surface, giving rise to the kinetic an affinity parameters summarized in the tables below.

[2] = biological target: T1, C-terminal IBP4 fragment (amino acids …); test: SPR (Biacore T100), mAb amine-coupled to C1 chip, CT-IBP4 injected, 1:1 fit, first surface assay 1
Protocol: as §1

[3] = biological target: T1, C-terminal IBP4 fragment (amino acids …); test: SPR (Biacore T100), mAb amine-coupled to C1 chip, CT-IBP4 injected, 1:1 fit, second surface assay 1
Protocol: as §1

[4] = biological target: T1, C-terminal IBP4 fragment (amino acids …); test: SPR (Biacore T100), mAb amine-coupled to C1 chip, CT-IBP4 injected, 1:1 fit, first surface assay 2
Protocol: as §1

[5] = biological target: T1, C-terminal IBP4 fragment (amino acids …); test: SPR (Biacore T100), mAb amine-coupled to C1 chip, CT-IBP4 injected, 1:1 fit, second surface assay 2
Protocol: as §1

[6] = biological target: T1, C-terminal IBP4 fragment (amino acids …); test: SPR (Biacore T100), mAb amine-coupled to C1 chip, CT-IBP4 injected, average
Protocol: as §1

[7] = biological target: T1, C-terminal IBP4 fragment (amino acids …); test: SPR (Biacore T100), mAb amine-coupled to C1 chip, CT-IBP4 injected, 1:1 fit, first surface assay 3
Protocol: as §1

[8] = biological target: T1, C-terminal IBP4 fragment (amino acids …); test: SPR (Biacore T100), mAb amine-coupled to C1 chip, CT-IBP4 injected, 1:1 fit, assay 1
Protocol: as §1

[9] = biological target: T1, C-terminal IBP4 fragment (amino acids …); test: SPR (Biacore T100), mAb amine-coupled to C1 chip, CT-IBP4 injected, 1:1 fit, assay 3
Protocol: as §1

[10] = biological target: T1, C-terminal IBP4 fragment (amino acids …); test: SPR (Biacore T100), mAb amine-coupled to C1 chip, CT-IBP4 injected, 1:1 fit, assay 2
Protocol: as §1

[11] = biological target: T2, human sex hormone-binding globulin (SHBG) (human, UniProt P04278 30-402, O-linked glycan at T36 (native glycosylated form)); test: SPR (Biacore T100), mAb captured on anti-mouse IgG, SHBG antigen injected, 1:1 fit, assay 3
T2 construct: Purified human SHBG, the SHBG antigen of the SPR runs, or SHBG in human serum; also called SHBG protein
T2 sequence: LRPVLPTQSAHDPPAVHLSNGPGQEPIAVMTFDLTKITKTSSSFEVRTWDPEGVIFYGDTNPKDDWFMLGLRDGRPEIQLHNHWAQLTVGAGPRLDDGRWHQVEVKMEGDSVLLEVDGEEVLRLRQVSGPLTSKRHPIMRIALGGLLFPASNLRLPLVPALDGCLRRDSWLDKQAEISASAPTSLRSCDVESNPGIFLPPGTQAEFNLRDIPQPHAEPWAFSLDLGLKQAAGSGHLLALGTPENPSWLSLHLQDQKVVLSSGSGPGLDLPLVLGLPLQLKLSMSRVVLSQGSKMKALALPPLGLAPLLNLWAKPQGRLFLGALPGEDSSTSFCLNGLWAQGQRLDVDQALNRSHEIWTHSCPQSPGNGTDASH
Protocol: (§2) Surface plasmon resonance experiments were performed on a BiacoreT100 to characterize the anti-SHBG and anti-IBP4 antibodies. Anti-mouse-IgG antibody was amine coupled to ˜500 RU on a C1 sensor chip using standard NHS/EDC activation. Test monoclonal antibodies were captured on the anti-mouse-IgG surfaces. The binding for the Sex Hormone Binding Globulin Antigen to anti-SHBG variant antibodies 4G10.F8 and 13C9.E5 were measured in a multi-cycle kinetic mode. Binding studies were performed in PBS buffer+0.05% P20+3 mM EDTA at 25 degrees C. SHBG was captured for 1 minute at 200 nM and regenerated with 1/100 H3PO4 after each cycle. SHBG was captured to similar densities on 2 different flow cells followed by an injection of the SHBG antigen in a 3-fold titration series up to 600 nM over the two surfaces. The responses were processed by subtracting the buffer injection to correct for drift. The data sets fit well to a simple 1:1 interaction model using SCRUBBER (Biologic Software Pty Ltd). The antigen concentration series was tested three times over each surface, giving rise to the kinetic an affinity parameters summarized below.

[12] = biological target: T2, human sex hormone-binding globulin …; test: SPR (Biacore T100), mAb captured on anti-mouse IgG, SHBG antigen injected, average of 3 assays
Protocol: as §2

[13] = biological target: T2, human sex hormone-binding globulin …; test: SPR (Biacore T100), mAb captured on anti-mouse IgG, SHBG antigen injected, 1:1 fit, assay 2
Protocol: as §2

[14] = biological target: T2, human sex hormone-binding globulin …; test: SPR (Biacore T100), mAb captured on anti-mouse IgG, SHBG antigen injected, 1:1 fit, assay 3; assay 3
Protocol: as §2

[15] = biological target: T2, human sex hormone-binding globulin …; test: SPR (Biacore T100), mAb captured on anti-mouse IgG, SHBG antigen injected, 1:1 fit, assay 1
Protocol: as §2

[16] = biological target: T2, human sex hormone-binding globulin …; test: Biacore, hybridoma supernatant

- Kd [1]: 22.3 nM
- koff [1]: 0.00392 s⁻¹
- kon [1]: 176000 M⁻¹ s⁻¹
- Kd [2]: 38.2 nM
- koff [2]: 0.00447 s⁻¹
- kon [2]: 117000 M⁻¹ s⁻¹
- Kd [3]: 25.8 nM
- koff [3]: 0.00404 s⁻¹
- kon [3]: 157000 M⁻¹ s⁻¹
- Kd [4]: 37 nM
- koff [4]: 0.00419 s⁻¹
- kon [4]: 113000 M⁻¹ s⁻¹
- Kd [5]: 17.1 nM
- koff [5]: 0.0035 s⁻¹
- kon [5]: 204000 M⁻¹ s⁻¹
- Kd [6]: 31 nM
- koff [6]: 0.0041 s⁻¹
- kon [6]: 150000 M⁻¹ s⁻¹
- Kd [7]: 43.1 nM
- koff [7]: 0.00466 s⁻¹
- kon [7]: 108000 M⁻¹ s⁻¹
B1: anti-IBP4 antibody clone variant 5B3.G9 (antibody, mouse IgG1, kappa)
heavy: EVQLQQSGPELVKPGASAKISCKASGYTFTDYYMNWVKQSHGKSLEWIGDINPNNGGSAYNQKFKGKATLTVDKSSSTAYMELRSLTSEDSAVYYCARWDGGFDYWGQGTTLTVSSAKTTPPSVYPLAPGSAAQTNSMVTLGCLVKGYFPEPVTVTWNSGSLSSGVHTFPAVLQSDLYTLSSSVTVPSSTWPSQTVTCNVAHPASSTKVDKKIVPRDCGCKPCICTVPEVSSVFIFPPKPKDVLTITLTPKVTCVVVDISKDDPEVQFSWFVDDVEVHTAQTKPREEQINSTFRSVSELPIMHQDWLNGKEFKCRVNSAAFPAPIEKTISKTKGRPKAPQVYTIPPPKEQMAKDKVSLTCMITNFFPEDITVEWQWNGQPAENYKNTQPIMDTDGSYFVYSKLNVQKSNWEAGNTFTCSVLHEGLHNHHTEKSLSHSPG
light: DIVMTQSQKFMSTSVRDRVSVTCKASQNVGTNVAWYQQKPGQSPKALIYSASYRYSGVPDRFTGSGSGTAFTLTISNVQSEDLAEYFCQQYNIYPLTFGAGTKLELKRADAAPTVSIFPPSSEQLTSGGASVVCFLNNFYPKDINVKWKIDGSERQNGVLNSWTDQDSKDSTYSMSSTLTLTKDEYERHNSYTCEATHKTSTSPIVKSFNRNEC
notes: Mouse monoclonal; variant form expressed in CHO cells; also called IBP4 (5B3.G9) V1; IBP4-5B3.G9

- Kd [8]: 96.2 nM
- koff [8]: 0.0146 s⁻¹
- kon [8]: 152000 M⁻¹ s⁻¹
- Kd [9]: 75.9 nM
- koff [9]: 0.0128 s⁻¹
- kon [9]: 168000 M⁻¹ s⁻¹
- Kd [6]: 76 nM
- koff [6]: 0.013 s⁻¹
- kon [6]: 180000 M⁻¹ s⁻¹
- Kd [10]: 56.1 nM
- koff [10]: 0.0119 s⁻¹
- kon [10]: 211000 M⁻¹ s⁻¹
B2: anti-IBP4 antibody clone variant 7D6.G4 (antibody, mouse IgG1, kappa, V domains shown)
VH: EVQLQQSGPELVKPGASVKISCKASGYTFTDYYMNWVKQSHGKSLEWIGDINPNNGGSAYNQKFKGKATLTVDKSSSTAYMELRSLTSEDSAVYYCARWDGGFDYWGQGTTLTVSS
VL: DIVMTQSQKFMSTSVRDRVSVTCKASQNVGTNVAWYQQKPGQSPKALIYSASYRYSGVPDRFTGSGSGTDFTLTISNVQSEDLAEYFCQQYNSYPLTFGAGTKLELKR
notes: Mouse monoclonal; variant form; also called IBP4 (7D6.G4) V2; IBP4-7D6.G4

- Kd [11]: 3.66 nM
- kon [11]: 39600 M⁻¹ s⁻¹
- Kd [12]: 2 nM
- koff [12]: 9e-05 s⁻¹
- kon [12]: 42000 M⁻¹ s⁻¹
- Kd [13]: 1.91 nM
- koff [13]: 8.37e-05 s⁻¹
- kon [13]: 43900 M⁻¹ s⁻¹
- koff [14]: 0.000145 s⁻¹
- Kd [15]: 1.05 nM
- koff [15]: 4.57e-05 s⁻¹
- kon [15]: 43700 M⁻¹ s⁻¹
- Kd [16]: 0.95 nM
- koff [16]: 6.2e-05 s⁻¹
- kon [16]: 65000 M⁻¹ s⁻¹
B3: anti-SHBG antibody clone variant 4G10.F8 (antibody, mouse IgG2a, kappa)
heavy: QVQLQQPGAELVKPGASVKMSCKASGYTFTGYWMHWVKQRPGQGLEWIGVIDPSTGYTTYNEKFKGKATLTVDTSSNTAYMQLSSLTSEDSAVYYCTREPLVTADFEYWGQGTTLTVSSAKTTAPSVYPLAPVCGDTTGSSVTLGCLVKGYFPEPVTLTWNSGSLSSGVHTFPAVLQSDLYTLSSSVTVTSSTWPSQSITCNVAHPASSTKVDKKIEPRGPTIKPCPPCKCPAPNLLGGPSVFIFPPKIKDVLMISLSPIVTCVVVDVSEDDPDVQISWFVNNVEVHTAQTQTHREDYNSTLRVVSALPIQHQDWMSGKEFKCKVNNKDLPAPIERTISKPKGSVRAPQVYVLPPPEEEMTKKQVTLTCMVTDFMPEDIYVEWTNNGKTELNYKNTEPVLDSDGSYFMYSKLRVEKKNWVERNSYSCSVVHEGLHNHHTTKSFSRTPG
light: DIVMTQSQKFMSTSVGDRISVTCKASQNVDTNVAWYRQKPGQSPKALIYSASYRFSGVPDRFTGSGSGTDFTLTISTFQSEDLAEYFCQQYDSYPYTFGGGTKLEIKRADAAPTVSIFPPSSEQLTSGGASVVCFLNNFYPKDINVKWKIDGSERQNGVLNSWTDQDSKDSTYSMSSTLTLTKDEYERHNSYTCEATHKTSTSPIVKSFNRNEC
notes: Mouse monoclonal; variant form expressed from a standard backbone in CHO cells; also called SHBG (4G10.F8) Anti SHBG v1; SHBG #6
